Results: publication doi:10.1101/2022.09.16.508221 (bioRxiv, 2022)
Values joined by “and” are separate entries in the source; they are usually repeats but may differ in a detail not shown here. Equal values may be shown once.

Columns and labels:
SEC = molecular target: the molecule itself; assay: SEC
mass photometry = molecular target: the molecule itself; assay: mass photometry

B1: Hermes transposase (full-length, with the mutations Q2E and K128G) (enzyme, Musca domestica, UniProt Q25438 1-612, looked up)
chain: MEKMDNLEVKAKINQGLYKITPRHKGTSFIWNVLADIQKEDDTLVEGWVFCRKCEKVLKYTTRQTSNLCRHKCCASLKQSRELKTVSADCKKEAIEKCAQWVVRDCRPFSAVSGSGFIDMIKFFIKVGAEYGEHVNVEELLPSPITLSRKVTSDAKEKKALISREIKSAVEKDGASATIDLWTDNYIKRNFLGVTLHYHENNELRDLILGLKSLDFERSTAENIYKKLKAIFSQFNVEDLSSIKFVTDRGANVVKSLANNIRINCSSHLLSNVLENSFEETPELNMPILACKNIVKYFKKANLQHRLRSSLKSECPTRWNSTYTMLRSILDNWESVIQILSEAGETQRIVHINKSIIQTMVNILDGFERIFKELQTCSSPSLCFVVPSILKVKEICSPDVGDVADIAKLKVNIIKNVRIIWEENLSIWHYTAFFFYPPALHMQQEKVAQIKEFCLSKMEDLELINRMSSFNELSATQLNQSDSNSHNSIDLTSHSKDISTTSFFFPQLTQNNSREPPVCPSDEFEFYRKEIVILSEDFKVMEWWNLNSKKYPKLSKLALSLLSIPASSAASERTFSLAGNIITEKRNRIGQQTVDSLLFLNSFYKNFCKLDI
- stoichiometry N (SEC): 8 and 6
- stoichiometry N (mass photometry): 2
